From US20260102474A1 (published 2026)
Positions count from the first letter of the chain named.

B1: ACE2-M2-FcKO (Fc fusion)
chain: STIEEQAKYFLDYFNVQAEDLFYQSSLASWNYNTNITEENVQNMNNAGDKWSAFLKEQSTYAQRYPLQEIQNLTVKLQLQALQQNGSSVLSEDKSKRLNTILNTMSTIYSTGKVCNPDNPQECLLLEPGLNEIMANSLDYNERLWAWESWRSEVGKQLRPLYEEYVVLKNEMARANHYEDYGDYWRGDYEVNGVDGYDYSRGQLIEDVEHTFEEIKPLYEHLHAYVRAKLMNAYPSYISPIGCLPAHLLGDMWGRFWTNLYSLTVPFGQKPNIDVTDAMVDQAWDAQRIFKEAEKFFVSVGLPNMTQGFWEYSMLTDPGNVQKAVCHPTAWDLGKGDFRILMCTKVTMDDFLTAHREMGRIQYDMAYAAQPFLLRNGANEGFHEAVGEIMSLSAATPKHLKSIGLLSPDFQEDNETEINFLLKQALTIVGTLPFTYMLEKWRWMVFKGEIPKDQWMKKWWEMKREIVGVVEPVPHDETYCDPASLFHVSNDYSFIRYYTRTLYQFQFQEALCQAAKHEGPLHKCDISNSTEAGQKLFNMLRLGKSEPWTLALENVVGAKNMNVRPLLNYFEPLFTWLKDQNKNSFVGWSTDWSPYADQSIKVRISLKSALGDKAYEWNDNEMYLFRSSVAYAMRQYFLKVKNQMILFGEEDVRVANLKPRISFNFFVTAPKNVSDIIPRTEVEKAIRMSRSRINDAFRLNDNSLEFLGIQPTLGPPNQPPVSSGGGGSGGGGSGGGGSEPKSSDKTHTCPPCPAPPVAGPSVFLFPPKPKDTLMISRTPEVTCVVVGVSHEDPEVKFNWYVDGVEVHNAKTKPREEQYNSTYRVVSVLTVLHQDWLNGKEYKCKVSNKQLPSPIEKTISKAKGQPGQPREPQVYTLPPSRDELTKNQVSLTCLVKGFYPSDIAVEWESNGQPENNYKTTPPVLDSDGSFFLYSKLTVDKSRWQQGNVFSCSVMHEALHNHYTQKSLSLSPGK
B2: ACE2-M1-FcKO (Fc fusion)
chain: B1 chain with Y13K, V16H, Q17E, R64M

Tests used:
[1] = molecular target: SARS-COV-2 spike protein on Caco-2 cells infected with the original version of SARS-COV-2 (SARS-COV-2-mNG) (SARS-COV-2, UniProt P0DTC2 14-1273); experiment: flow
[2] = molecular target: SARS-COV-2 full-length trimeric spike protein, parental (SARS-COV-2, UniProt P0DTC2 14-1213); experiment: competition

Binder | EC50 [1] [µg/mL] | IC50 [2] [nM]
B1 | 0.48 | 9.4
B2 | 0.29 | 3.8
